Reference: publication PMC9054013, “FCHO controls AP2’s initiating role in endocytosis through a PtdIns(4,5)P2-dependent switch” (Science Advances, 2022)

T1: Cμ2 (μ2 residues 160 to 435), P84092
T1 chain: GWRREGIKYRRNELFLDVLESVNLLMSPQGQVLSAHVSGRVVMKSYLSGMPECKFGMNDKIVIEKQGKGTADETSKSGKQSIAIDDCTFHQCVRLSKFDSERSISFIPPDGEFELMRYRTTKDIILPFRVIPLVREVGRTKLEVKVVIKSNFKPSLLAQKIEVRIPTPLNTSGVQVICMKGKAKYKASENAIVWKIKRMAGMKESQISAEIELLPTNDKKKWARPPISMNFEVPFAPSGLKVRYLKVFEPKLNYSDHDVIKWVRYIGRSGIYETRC

B1: FCHO2-N1+N2 (ITC), Q0JRZ9-1 Y340S (protein)
chain: NIPDVDEEGYSIKPETNQNDTKENHFSSSSDSDSEDEEPKKYRIEIKPMHPNNSHHTMASLDELKVSIGNITLSPAISRHS
B2: FCHO2-N1+N2 (ITC), Q0JRZ9-1 E320A; E321A; K326A (peptide)
chain: NIPDVDAAGYSIAPETNQNDTKENHFYSSSDSDSEDEEPKKYR

Biological target: T1, Cμ2 (μ2 residues 160 to 435), P84092
Experiment: ITC
Details: chain shown with the change;; parent: 25 ± 1 µM

Binder	Kd [µM]
B1	54
B2	110
